The target of the test is T1, human TD-60 with an amino-terminal streptavidin-binding protein (SBP) tag (human, UniProt Q9P258 1-522).
T1 construct: TD-60 (RCC2), human; cDNA codon optimized and made synthetically; The far-western sentence says only 'purified TD-60'; The GEF assay names it 'SBP-tagged recombinant TD-60'; far-western methods are in the Supplementary Methods; also called SBP-TD-60; RCC2; source: Sf9 cells (baculovirus, pFastBacI), purified
Description: far-Western; purified RalA or purified Ran tested on purified TD-60; details only in the Supplementary Methods. The settings on record: both partners purified.

T1 sequence (Q9P258 whole entry): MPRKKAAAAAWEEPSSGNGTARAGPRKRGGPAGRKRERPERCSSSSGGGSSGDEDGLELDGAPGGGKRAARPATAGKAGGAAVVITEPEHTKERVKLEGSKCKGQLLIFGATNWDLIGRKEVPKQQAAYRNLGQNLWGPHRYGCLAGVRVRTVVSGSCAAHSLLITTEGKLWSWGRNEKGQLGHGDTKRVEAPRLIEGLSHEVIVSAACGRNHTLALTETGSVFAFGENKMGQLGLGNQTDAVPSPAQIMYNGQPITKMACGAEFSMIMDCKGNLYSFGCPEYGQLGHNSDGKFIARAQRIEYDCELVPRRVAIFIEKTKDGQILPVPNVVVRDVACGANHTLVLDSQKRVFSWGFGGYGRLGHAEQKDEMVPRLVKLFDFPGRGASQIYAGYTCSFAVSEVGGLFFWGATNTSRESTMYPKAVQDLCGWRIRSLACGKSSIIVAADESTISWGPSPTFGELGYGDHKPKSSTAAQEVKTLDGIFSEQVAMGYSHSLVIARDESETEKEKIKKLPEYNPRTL

B1: purified human RalA (cloned into pFAT2) (natural protein, UniProt P11233 1-206, looked up)
chain: MAANKPKGQNSLALHKVIMVGSGGVGKSALTLQFMYDEFVEDYEPTKADSYRKKVVLDGEEVQIDILDTAGQEDYAAIRDNYFRSGEGFLCVFSITEMESFAATADFREQILRVKEDENVPFLLVGNKSDLEDKRQVSVEEAKNRAEQWNVNYVETSAKTRANVDKVFFDLMREIRARKMEDSKEKNGKKKRKSLAKRIRERCCIL
notes: RalA, human; The RalA of the GEF assay is called GST-tagged; also called Ras-related protein RalA; source: purified; cloned into pFAT2
As for B1, the binding result was “binds”.

These data come from paper PMC4510650, “TD-60 links RalA GTPase function to the CPC in mitosis” (Nature Communications, 2015).
